According to PMC2834951 (Nature structural & molecular biology, 2009):
Each block holds one binder with its values, some of them ahead of it.

How the values were obtained:
[1] = biological target: the molecule itself; test: SAXS
[2] = biological target: T1, human Ubc13 (human, UniProt P61088 1-152); test: SEC
T1 sequence (looked up): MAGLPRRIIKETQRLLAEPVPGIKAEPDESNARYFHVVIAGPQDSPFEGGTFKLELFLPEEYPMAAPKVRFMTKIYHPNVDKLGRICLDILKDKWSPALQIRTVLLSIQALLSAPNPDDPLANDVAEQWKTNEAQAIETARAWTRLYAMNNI

B1: human TRAF6 RZ123 (residues 50-211), wild type (domain or fragment, UniProt Q9Y4K3 50-211, looked up)
chain: MEEIQGYDVEFDPPLESKYECPICLMALREAVQTPCGHRFCKACIIKSIRDAGHKCPVDNEILLENQLFPDNFAKREILSLMVKCPNEGCLHKMELRHLEDHQAHCEFALMDCPQCQRPFQKFHINIHILKDCPRRQVSCDNCAASMAFEDKEIHDQNCPLA
- stoichiometry N [1]: 2

- binding result [2]: binds
B2: human TRAF6 RZ12 (residues 50-187) (domain or fragment, UniProt Q9Y4K3 50-187, looked up)
chain: MEEIQGYDVEFDPPLESKYECPICLMALREAVQTPCGHRFCKACIIKSIRDAGHKCPVDNEILLENQLFPDNFAKREILSLMVKCPNEGCLHKMELRHLEDHQAHCEFALMDCPQCQRPFQKFHINIHILKDCPRRQV

- binding result [2]: binds
B3: human TRAF6 RZ1 (residues 50-159) (domain or fragment, UniProt Q9Y4K3 50-159, looked up)
chain: MEEIQGYDVEFDPPLESKYECPICLMALREAVQTPCGHRFCKACIIKSIRDAGHKCPVDNEILLENQLFPDNFAKREILSLMVKCPNEGCLHKMELRHLEDHQAHCEFAL
